From patent US20200062863A1 (CSL BEHRING, published 2020)

Columns and labels:
Assay in all cases: Western blot of culture supernatant (non-reducing SDS-PAGE) probed with 3F7 mAb, anti-human IgG-FITC
[1] = molecular target: T1, W420R
T1 construct: also called Mu-FXII W420R mutant with C-terminal 8xHis-tag; mutant d)
T1 single chain: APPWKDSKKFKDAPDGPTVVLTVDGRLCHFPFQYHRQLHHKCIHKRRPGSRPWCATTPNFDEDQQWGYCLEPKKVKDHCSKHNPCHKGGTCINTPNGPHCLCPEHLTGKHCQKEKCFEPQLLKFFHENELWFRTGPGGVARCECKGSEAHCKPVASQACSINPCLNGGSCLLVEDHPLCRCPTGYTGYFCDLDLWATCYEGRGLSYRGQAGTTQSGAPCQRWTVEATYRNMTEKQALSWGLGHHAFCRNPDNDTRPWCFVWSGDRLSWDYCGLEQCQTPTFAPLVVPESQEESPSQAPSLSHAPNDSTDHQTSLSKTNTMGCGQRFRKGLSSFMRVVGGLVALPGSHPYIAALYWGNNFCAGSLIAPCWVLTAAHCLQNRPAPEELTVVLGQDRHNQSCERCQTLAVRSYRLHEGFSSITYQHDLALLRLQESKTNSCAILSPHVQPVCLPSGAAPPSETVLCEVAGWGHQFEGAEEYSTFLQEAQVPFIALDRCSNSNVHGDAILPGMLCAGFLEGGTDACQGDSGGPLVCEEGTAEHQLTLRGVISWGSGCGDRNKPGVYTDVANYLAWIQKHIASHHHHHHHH
Experimental: (§1) Proteins were then transferred electrophoretically onto nitrocellulose filters and blocked for 1 hour in 5% Milk powder in Tris-buffered saline with 0.05% Tween-20 (TTBS). Filters were then incubated for 1 hour with either 3F7 mAb or an anti-His mAb 3H3 (both at […] in TTBS with 5% Milk powder), washed thoroughly with TTBS, then incubated for a further hour with anti-human IgG-FITC or anti-mouse IgG-FITC, respectively (Millipore, USA; both at 0.25 mg/ml in TTBS with 5% Milk powder). Following further washing of membranes in TTBS, Ab-FITC bound proteins were visualized using a Typhoon variable mode analyzer (GE Healthcare, USA).

[2] = molecular target: T2, T538A
T2 construct: also called Mu-FXII T538A mutant with C-terminal 8xHis-tag; mutant m)
T2 single chain: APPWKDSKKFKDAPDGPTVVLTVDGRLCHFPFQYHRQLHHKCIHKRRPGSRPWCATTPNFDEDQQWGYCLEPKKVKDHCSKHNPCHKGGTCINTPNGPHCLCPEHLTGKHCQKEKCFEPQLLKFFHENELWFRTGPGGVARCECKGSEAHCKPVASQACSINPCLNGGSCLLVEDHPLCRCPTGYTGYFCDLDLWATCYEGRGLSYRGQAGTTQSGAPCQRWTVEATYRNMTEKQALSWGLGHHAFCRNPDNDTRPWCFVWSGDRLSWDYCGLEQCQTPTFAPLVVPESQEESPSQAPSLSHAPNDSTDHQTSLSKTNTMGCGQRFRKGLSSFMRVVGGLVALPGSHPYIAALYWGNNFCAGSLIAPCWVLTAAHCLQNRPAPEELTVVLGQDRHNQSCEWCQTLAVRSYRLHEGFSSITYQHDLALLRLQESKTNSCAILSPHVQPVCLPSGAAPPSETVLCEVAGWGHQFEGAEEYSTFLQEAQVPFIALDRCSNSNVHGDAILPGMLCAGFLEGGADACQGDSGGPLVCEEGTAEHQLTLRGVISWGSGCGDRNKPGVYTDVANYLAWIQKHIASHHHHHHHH
Experimental: as §1

[3] = molecular target: T3, Q450R
T3 construct: also called Mu-FXII Q450R mutant with C-terminal 8xHis-tag; mutant g)
T3 single chain: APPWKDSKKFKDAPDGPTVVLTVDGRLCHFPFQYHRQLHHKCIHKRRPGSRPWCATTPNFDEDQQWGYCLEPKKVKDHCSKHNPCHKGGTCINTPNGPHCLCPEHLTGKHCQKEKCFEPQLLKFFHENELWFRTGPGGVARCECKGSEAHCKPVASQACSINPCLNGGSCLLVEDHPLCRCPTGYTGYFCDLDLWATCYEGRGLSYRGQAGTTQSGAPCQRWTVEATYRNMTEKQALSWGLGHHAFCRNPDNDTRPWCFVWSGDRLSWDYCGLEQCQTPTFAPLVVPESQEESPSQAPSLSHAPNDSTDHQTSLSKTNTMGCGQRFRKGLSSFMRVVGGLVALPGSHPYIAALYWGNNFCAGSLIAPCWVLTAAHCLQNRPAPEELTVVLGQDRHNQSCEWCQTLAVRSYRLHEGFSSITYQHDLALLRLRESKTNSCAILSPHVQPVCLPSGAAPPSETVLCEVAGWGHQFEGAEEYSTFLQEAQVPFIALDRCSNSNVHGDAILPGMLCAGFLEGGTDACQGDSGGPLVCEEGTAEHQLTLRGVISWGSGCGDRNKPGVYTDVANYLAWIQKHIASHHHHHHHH
Experimental: as §1

[4] = molecular target: T4, N516S
T4 construct: also called Mu-FXII N516S mutant with C-terminal 8xHis-tag; mutant l)
T4 single chain: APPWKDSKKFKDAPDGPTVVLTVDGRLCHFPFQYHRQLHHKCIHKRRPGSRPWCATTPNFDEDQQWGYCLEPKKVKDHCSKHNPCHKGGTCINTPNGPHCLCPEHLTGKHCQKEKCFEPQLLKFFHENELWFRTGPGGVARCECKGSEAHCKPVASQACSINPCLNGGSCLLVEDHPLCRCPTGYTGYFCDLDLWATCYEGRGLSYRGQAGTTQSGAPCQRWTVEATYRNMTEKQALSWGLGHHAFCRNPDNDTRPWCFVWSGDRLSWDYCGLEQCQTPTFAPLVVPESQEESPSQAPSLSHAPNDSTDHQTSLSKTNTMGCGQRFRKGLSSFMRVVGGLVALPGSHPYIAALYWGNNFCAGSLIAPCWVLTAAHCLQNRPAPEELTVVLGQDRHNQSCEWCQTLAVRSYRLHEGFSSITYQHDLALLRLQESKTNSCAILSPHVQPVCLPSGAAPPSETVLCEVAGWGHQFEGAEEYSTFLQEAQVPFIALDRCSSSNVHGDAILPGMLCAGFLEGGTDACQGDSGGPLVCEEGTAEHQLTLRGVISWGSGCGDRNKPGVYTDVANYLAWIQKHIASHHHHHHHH
Experimental: as §1

Measured: binding result

B1: monoclonal antibody 3F7 (fully human IgG4/lambda) (antibody, V domains shown)
VH: EVQLLESGGGLVQPGGSLRLSCAASGFTFSKYIMQWVRQAPGKGLEWVSGIRPSGGTTVYADSVKGRFTISRDNSKNTLYLQMNSLRAEDTAVYYCARALPRSGYLISPHYYYYALDVWGQGTTVTVSS
VL: QSELTQPPSASGTPGQRVTISCSGSSSNIGRNYVYWYQQVPGTAPKLLIYSNNQRPSGVPDRFSGSKSGTSASLVISGLRSEDEADYYCAAWDASLRGVFGGGTKLTVLG
notes: also called 3F7 mAb; MAb 3F7
binds: [1] | [2] | [3] | [4]
